In the Human Domainome abundance scans (Beltran et al. 2025):
± gives the uncertainty stated by the source.

B1: Androgen receptor, residues 557 to 632; numbered along this chain, P10275 (parent)
chain: QKTCLICGDEASGCHYGALTCGSCKVFFKRAAEGKQKYLCASRNDCTIDKFRRKNCPSCRLRKCYEAGMTLGARKL

Variants of: B1
Experiment: abundance fitness (aPCA) (normalised: wild type 0, dead -1); higher = more abundant; growth selection in yeast, the domain comes from the species named
Conditions: Homo sapiens

Variant | abundance fitness
T3N | 0.035 ± 0.2
T3A | -0.081 ± 0.061
T3Y | -0.003 ± 0.15
C40P | -0.756 ± 0.18
C40S | -0.713 ± 0.086
A32V | -0.016 ± 0.05
A32S | -0.052 ± 0.045
I6V | -0.243 ± 0.07
I6C | -0.327 ± 0.21
S58Q | -0.134 ± 0.083
I48H | -0.482 ± 0.058
I48N | -0.199 ± 0.043
I48G | -0.362 ± 0.03
G13V | -0.061 ± 0.062
G13A | -0.167 ± 0.07
G13E | -0.274 ± 0.13
G13M | -0.163 ± 0.083
T20N | -0.441 ± 0.21
T20C | 0.002 ± 0.064
K37F | -0.331 ± 0.26
K37C | -0.185 ± 0.093

Variant | abundance fitness
K37Y | -0.178 ± 0.12
L19I | -0.034 ± 0.1
R74S | -0.032 ± 0.059
R74Q | 0.023 ± 0.1
R74G | 0.05 ± 0.05
R74A | -0.119 ± 0.068
D9S | -0.061 ± 0.064
D9C | -0.053 ± 0.1
D9L | -0.626 ± 0.15
D9H | 0.138 ± 0.35
D9A | -0.089 ± 0.065
T70I | -0.344 ± 0.29
L71I | -0.021 ± 0.068
L71G | -0.128 ± 0.097
G22S | -0.048 ± 0.047
G22H | -0.152 ± 0.068
G22Y | -0.207 ± 0.059
G22Q | -0.037 ± 0.058
G22K | -0.114 ± 0.051
G22C | -0.064 ± 0.051
G22I | -0.262 ± 0.054

Variant | abundance fitness
D49H | -0.382 ± 0.22
D49M | -0.448 ± 0.21
D49K | -0.317 ± 0.16
G72T | -0.056 ± 0.12
G72V | -0.062 ± 0.075
G72S | -0.092 ± 0.1
G72Y | -0.074 ± 0.13
G72L | -0.062 ± 0.068
G17Q | -0.357 ± 0.05
G17N | -0.061 ± 0.23
G17L | -0.552 ± 0.048
Y65V | 0.02 ± 0.059
Y65E | -0.092 ± 0.09
K29M | -0.245 ± 0.15
K29V | -0.215 ± 0.08
K29P | -0.377 ± 0.07
K29F | 0.019 ± 0.24
K29E | 0.202 ± 0.11
C21W | -0.694 ± 0.2
C21V | -0.754 ± 0.068
C21E | -0.68 ± 0.12

Variant | abundance fitness
K25E | 0.044 ± 0.026
K25A | 0.026 ± 0.022
K25G | 0.013 ± 0.021
K25T | 0.005 ± 0.025
E33R | -0.042 ± 0.043
E33D | -0.066 ± 0.063
H15Q | -0.175 ± 0.12
H15L | -0.211 ± 0.074
H15M | -0.088 ± 0.11
S23N | -0.108 ± 0.082
K50S | -0.13 ± 0.087
K50F | -0.277 ± 0.22
K50P | -0.007 ± 0.1
L76S | -0.084 ± 0.086
T47Y | -0.071 ± 0.037
T47P | 0.007 ± 0.035
T47I | -0.03 ± 0.058
T47G | -0.079 ± 0.029
T47S | -0.015 ± 0.032
A31N | -0.144 ± 0.14
A18R | -0.24 ± 0.039
